Data published in paper PMC9750158.
pKd: −log10 of the molar value.

Key:
[1] = molecular target: GST-Rac1^QP (UniProt P63000); experiment: pull-down
[2] = molecular target: GST-Arf1 (Arf1^∆N17) (UniProt P84077); experiment: pull-down

pKd [1]	pKd [2]	Substance
5.70		WRC with Sra1^Y967A (D site disrupted) (from UniProt Q7L576;Q9Y2A7;Q92558;Q9NYB9;Q8WUW1) (complex)
	5.27	∆WRC230^D-Rac1 (Rac1 tethered to the C terminus of Sra1) (from UniProt Q7L576;Q9Y2A7;Q92558;Q9NYB9;Q8WUW1) (complex)
